Patent US10501502B2, “Allophycocyanin alpha-subunit evolved labeling proteins (smURFPs)” (The Regents of the University of California, priority 2016, dated 2019)
Read-outs that look alike come from different tables or passages of the source.

Tests used:
[1] = FP purification and fluorescence characterization in vitro (spectra, extinction coefficient, quantum yield); format: physicochemical
How it was run: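 His-tagged FPs expressed in E. coli with PCB or BV and Ni-NTA purified; apoproteins loaded in vitro with chromophore in PBS+10% FBS at 37 °C overnight. Extinction coefficient from BV absorbance at 390 nm or BCA protein assay; quantum yield relative to Cy5; photobleaching normalised to 1,000 photons/molecule/s.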

HT1080 cells = experiment: FP fluorescence in HT1080 cells in vitro; format: cell-based; conditions: for fold greater fluorescence than mCardinal: BVMe2
[2] = Native PAGE quaternary structure / stoichiometry; format: physicochemical; conditions: for stoichiometry: Table 5
Description: Native PAGE was run using NativePAGE Novex Bis-Tris Gel System (Life Technologies) on Native PAGE 4-16% Bis-Tris protein gels (Life Technologies). SDS-denaturing PAGE was run using NuPAGE MOPS SDS running buffer (Life Technologies) and NuPAGE Novex 4-12% Bis-Tris gels (Life Technologies). Precision Plus Protein Dual Color Standards (Bio-Rad) were used as an MW ladder. Zinc blot was performed after running the SDS-PAGE gel using the described method^44. Fluorescence was imaged using a BioSpectrum AC Imaging System (UVP) with EX/EM=535(45)/605(70) nm for tdTomato, EX/EM=650(13)/690(50) nm for smURFP and TDsmURFP, EX/EM=685(40)/710LP nm for IFP1.4 and BV+zinc.

HEK293A cells = experiment: FP stability in HEK293A cells (cycloheximide); format: cell-based; conditions: for fold increase in smURFP fluorescence: HEK293A
Description: HEK293A cells were transfected with pCDNA3-smURFP-IRES-eGFP and incubated for 48 h. 50 μg/ml cycloheximide+25 μM BV, 5 μM BVMe2, or no chromophore was added and cells were imaged after 1, 10, 30, 60, 120, and 225 min. Fluorescence was fit to a single exponential decay (F=A [exp^−kt]), where F is fluorescence that varies as a function of time, A is the fit initial fluorescence, k is the rate of fluorescence decay (protein degradation), and t is time in min.

[3] = In vitro photobleaching of bubbles of purified FP or Cy5 in mineral oil; format: physicochemical
Description: EX and EM spectra were obtained using SPEX Fluorolog fluorometer (Horiba). Absorbance spectra were obtained using UV-VIS Spectrophotometer Cary Eclipse (Varian) or UV-2700 (Shimadzu). Quantum yield was determined relative to Cy5. Incorporation rates of BV on 0.5 μM smURFP was performed by addition of smURFP to PBS alone or with 20% fetal bovine serum (FBS) and mixed by pipetting in a quartz cuvette. Chromophore was added last, mixed by pipetting, and fluorescence was recorded using SPEX Fluorolog fluorometer (Horiba). Photobleaching was characterized on bubbles of purified FP or Cy5 within mineral oil using light from a 150 W xenon arc lamp with 100% light through EX/EM=628(40)/680(30) nm for smURFP, TDsmURFP, and Cy5 or EX/EM=665 (45)/725 (50) nm for IFP 1.4 focused with a 40×, 1.2 numerical aperture C-Apochromat oil-immersion lens on a Zeiss Axiovert 200M inverted microscope. Photobleaching times were normalized to reflect an initial illumination intensity producing 1,000 photons per fluorescent molecule per second as previously described^37.

[4] = smURFP/TDsmURFP + 1 or 2 chromophore, Table 7

B1: smURFP: small ultra-red fluorescent protein, SEQ ID NO: 13, homodimer, covalently attaches biliverdin (protein)
chain: MKTSEQRVNIATLLTENKKKIVDKASQDLWRRHPDLIAPGGIAFSQRDRALCLRDYGWFLHLITFCLLAGDKGPIESIGLISIREMYNSLGVPVPAMMESIRCLKEASLSLLDEEDANETAPYFDYIIKAMS
modifications: homodimer; biliverdin chromophore; smRUFP Variant Polypeptide
[1]
  Emission Maximum: 670 nm
  extinction coefficient (EC): 180,000 M^−1cm^−1
  increase of BV QY after covalent attachment to smURFP: ~1,400 fold
  quantum yield (QY): 18%
[1]; Table 4
  Molecular Brightnes Relative to smURFP: 100%
[1]; Table 5
  Emission Maximum: 670 nm
  Excitation Maximum: 642 nm
  Extinction Coefficient: 180,000 ^ m^−1cm^−1/chromophore
  Quantum Yield: 18%
  molecular brightness relative to eGFP: 96%
[1]; b72, as fraction
  Quantum Yield: 0.20
[1]; biophysical brightness
  brightness relative to most red or far-red fluorescent proteins derived from coral: ~2 fold
[1]; evolved APCα FPs, Table 4
  Emission Maximum: 670 nm
  Excitation Maximum: 642 nm
  Extinction Coefficient: 180,000 M^−1 cm^−1
  Quantum Yield: 18%
[1]; running text and figure legends
  excitation (absorption) maximum: 642 nm
[1]; [4]
  Emission Maximum: 670 nm
  Excitation Maximum: 642 nm
  Extinction Coefficient: 180,000 M^−1 cm^−1
  Quantum Yield: 18%
HT1080 cells; 12.5 μM BV for 3 h
  fluorescence relative to mCherry in HT1080 cells in vitro: equivalent
HT1080 cells; HT1080, T2A construct
  fold greater fluorescence than mCardinal: 4 fold
[2]
  quaternary structure on native gel: homodimer
  stoichiometry: Dimer
HEK293A cells; 5 μM BVMe2, 1 h
  fold increase in smURFP fluorescence: 85 fold
HEK293A cells; 5 μM BVMe2, 3 h
  fold increase in smURFP fluorescence: 85 fold
HEK293A cells; 5 μM BVMe2, 48 h
  fold increase in smURFP fluorescence: 125 fold
HEK293A cells; 25 μM BV, 3 h
  fold increase in smURFP fluorescence: 13 fold
HEK293A cells; 25 μM BV, 48 h
  fold increase in smURFP fluorescence: 27 fold
HEK293A cells; BV exposure 3 h
  protein stability t50%: 30 h
HEK293A cells; BVMe2 exposure 3 h
  protein stability t50%: 33 h
HEK293A cells; HEK293A cells, cycloheximide
  protein stability t50%: 33 h
HEK293A cells; continuously exposed to BV, cycloheximide
  protein stability t50%: 33 h
HEK293A cells; continuously exposed to BVMe2, cycloheximide
  protein stability t50%: 35 h
HEK293A cells; without chromophore (apoprotein)
  protein stability t50%: 17 h
[3]; excitation intensity yielding 1,000 photons per s
  in vitro photobleaching t50%: 300 s
[3]; time to bleach 50% from an initial emission rate of 1,000 photons per s
  In vitro photostability t50%: 300 s

B2: smURFP + BVMe2: smURFP with a single biliverdin dimethyl ester chromophore (protein)
chain: MKTSEQRVNIATLLTENKKKIVDKASQDLWRRHPDLIAPGGIAFSQRDRALCLRDYGWFLHLITFCLLAGDKGPIESIGLISIREMYNSLGVPVPAMMESIRCLKEASLSLLDEEDANETAPYFDYIIKAMS
modifications: left off: small tags and cut ends
notes: smURFP with a single biliverdin dimethyl ester chromophore
[1]; Table 5
  Emission Maximum: 672 nm
  Excitation Maximum: 646 nm
  Extinction Coefficient: 65,000^ m^−1cm^−1/chromophore
  Quantum Yield: 12%
  molecular brightness relative to eGFP: 23%
[1]; [4]
  Emission Maximum: 672 nm
  Excitation Maximum: 646 nm
  Extinction Coefficient: 65,000 M^−1 cm^−1
  Quantum Yield: 12%
HT1080 cells; HT1080 stable lines expressing each FP separately
  fold greater fluorescence than mCardinal: 2 fold
[2]
  stoichiometry: Dimer
HEK293A cells; HEK293A cells, cycloheximide
  protein stability t50%: 35 h
